Results as given in patent WO2009024653A1 (dated 2009).

How the values were obtained:
[1] = biological target: T1, RHD5, human monoclonal IgG1 antibody directed against the C1 domain of factor VIII (LMBP 6165CB); test: SPR (Biacore), RHD5 immobilised on a CM5 chip, 18B6 injected
T1 construct: Human IgG1; also called anticorps RHD5; anti-C1 antibody

[2] = biological target: T1, RHD5, human monoclonal IgG1 antibody …; test: competition ELISA, coated recFVIII, RHD5 at 2 ug/ml pre-incubated with 18B6
[3] = biological target: T1, RHD5, human monoclonal IgG1 antibody …; test: cell-based or functional assay

T1 sequence (VH, as listed by the source, chain 1 of 2): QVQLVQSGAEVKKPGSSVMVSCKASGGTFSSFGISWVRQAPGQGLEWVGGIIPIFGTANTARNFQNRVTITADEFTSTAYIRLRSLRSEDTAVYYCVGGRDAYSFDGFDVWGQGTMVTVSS
T1 sequence (VL, as listed by the source, chain 2 of 2): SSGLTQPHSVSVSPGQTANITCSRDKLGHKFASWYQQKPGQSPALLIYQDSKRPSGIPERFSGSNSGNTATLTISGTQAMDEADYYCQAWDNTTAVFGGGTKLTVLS

koff [1]: 1.45e-05 s⁻¹ | kon [1]: 4260 M⁻¹ s⁻¹ | RHD5/18B6 molar ratio at 50% inhibition of RHD5 binding to FVIII [2]: 2.5 molar ratio RHD5/18B6 | percent inhibition of RHD5 binding to FVIII at an equimolar ratio [2]: 92% | neutralisation of the inhibitory (anti-FVIII) activity of RHD5, chromogenic factor VIII test (DADE), RHD5 0.4 ug/ml, FVIII Kogenate 0.5 U/ml [3]: 50 % neutralisation at an equimolar RHD5/18B6 ratio
B1: anti-idiotypic monoclonal antibody 18B6 (produced by hybridoma 18B6, CNCM I-3559) (antibody, mouse IgG1, V domains shown)
VH: QVQLQQSGAELAKPGASVKMSCKASGYTFTTYWMHWIKQRPGQDLEWIGYINPTSGYTEYNQNFKDKATLTADKSSSTAYMQLNSLTSEDSAVYFCARSGAYYRYDDAMDSWGQGTSVTVSS
VL: QIVLSQSPAILSASPGEKVTMTCRASSSVSYMNWYQQKPGSSPKPWIYATSNLASGVPARFSGSGSGTSYSLTISRVEAEDAATYYCQQWSSNPPMLTFGAGTKLELK
notes: also called anticorps anti-idiotypique 18B6; clone 18B6 anti-RHD5
